Results: PMC6547417
Like-named read-outs stand apart in the source and are kept apart here.

Tests used:
Assay in all cases: EMSA
RPA [1] = biological target: T1, RPA (UniProt P27694;P15927;P35244 1-616;1-270;1-121)
CST (CTC1-STN1-TEN1) = CST (CTC1-STN1-TEN1) (human, UniProt Q2NKJ3;Q9H668;Q86WV5 1-1217;1-368;1-123)
RPA [2] = biological target: T1, RPA; remark: listed apart in the source

T1 sequence (P27694 whole entry, chain 1 of 3): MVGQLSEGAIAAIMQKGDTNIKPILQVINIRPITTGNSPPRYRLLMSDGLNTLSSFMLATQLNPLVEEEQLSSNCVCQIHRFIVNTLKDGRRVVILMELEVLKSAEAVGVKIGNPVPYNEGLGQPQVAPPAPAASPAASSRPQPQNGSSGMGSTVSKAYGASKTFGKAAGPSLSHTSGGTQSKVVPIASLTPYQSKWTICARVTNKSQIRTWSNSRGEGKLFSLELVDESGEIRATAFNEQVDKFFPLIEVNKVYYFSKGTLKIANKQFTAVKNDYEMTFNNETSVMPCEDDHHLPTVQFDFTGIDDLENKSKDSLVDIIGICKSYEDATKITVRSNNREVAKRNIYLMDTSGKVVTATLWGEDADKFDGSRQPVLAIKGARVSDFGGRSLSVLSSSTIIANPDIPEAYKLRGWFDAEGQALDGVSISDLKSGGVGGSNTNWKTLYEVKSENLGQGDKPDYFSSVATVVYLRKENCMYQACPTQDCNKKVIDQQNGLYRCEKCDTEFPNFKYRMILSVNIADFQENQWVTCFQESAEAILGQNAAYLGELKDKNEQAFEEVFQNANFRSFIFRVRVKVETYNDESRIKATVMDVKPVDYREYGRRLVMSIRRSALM
T1 sequence (P15927 whole entry, chain 2 of 3): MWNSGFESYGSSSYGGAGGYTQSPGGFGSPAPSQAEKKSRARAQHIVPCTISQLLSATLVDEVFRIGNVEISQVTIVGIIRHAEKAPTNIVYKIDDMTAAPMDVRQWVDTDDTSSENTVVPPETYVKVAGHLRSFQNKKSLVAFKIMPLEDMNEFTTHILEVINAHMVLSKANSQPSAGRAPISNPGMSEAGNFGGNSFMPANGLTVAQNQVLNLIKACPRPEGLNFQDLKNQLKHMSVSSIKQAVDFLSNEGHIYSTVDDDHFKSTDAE
T1 sequence (P35244 whole entry, chain 3 of 3): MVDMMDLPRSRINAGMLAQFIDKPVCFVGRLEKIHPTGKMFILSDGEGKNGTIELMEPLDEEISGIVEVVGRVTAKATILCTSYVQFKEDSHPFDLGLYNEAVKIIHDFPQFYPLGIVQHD
Chain of CST (CTC1-STN1-TEN1) (Q2NKJ3 whole entry, chain 1 of 3): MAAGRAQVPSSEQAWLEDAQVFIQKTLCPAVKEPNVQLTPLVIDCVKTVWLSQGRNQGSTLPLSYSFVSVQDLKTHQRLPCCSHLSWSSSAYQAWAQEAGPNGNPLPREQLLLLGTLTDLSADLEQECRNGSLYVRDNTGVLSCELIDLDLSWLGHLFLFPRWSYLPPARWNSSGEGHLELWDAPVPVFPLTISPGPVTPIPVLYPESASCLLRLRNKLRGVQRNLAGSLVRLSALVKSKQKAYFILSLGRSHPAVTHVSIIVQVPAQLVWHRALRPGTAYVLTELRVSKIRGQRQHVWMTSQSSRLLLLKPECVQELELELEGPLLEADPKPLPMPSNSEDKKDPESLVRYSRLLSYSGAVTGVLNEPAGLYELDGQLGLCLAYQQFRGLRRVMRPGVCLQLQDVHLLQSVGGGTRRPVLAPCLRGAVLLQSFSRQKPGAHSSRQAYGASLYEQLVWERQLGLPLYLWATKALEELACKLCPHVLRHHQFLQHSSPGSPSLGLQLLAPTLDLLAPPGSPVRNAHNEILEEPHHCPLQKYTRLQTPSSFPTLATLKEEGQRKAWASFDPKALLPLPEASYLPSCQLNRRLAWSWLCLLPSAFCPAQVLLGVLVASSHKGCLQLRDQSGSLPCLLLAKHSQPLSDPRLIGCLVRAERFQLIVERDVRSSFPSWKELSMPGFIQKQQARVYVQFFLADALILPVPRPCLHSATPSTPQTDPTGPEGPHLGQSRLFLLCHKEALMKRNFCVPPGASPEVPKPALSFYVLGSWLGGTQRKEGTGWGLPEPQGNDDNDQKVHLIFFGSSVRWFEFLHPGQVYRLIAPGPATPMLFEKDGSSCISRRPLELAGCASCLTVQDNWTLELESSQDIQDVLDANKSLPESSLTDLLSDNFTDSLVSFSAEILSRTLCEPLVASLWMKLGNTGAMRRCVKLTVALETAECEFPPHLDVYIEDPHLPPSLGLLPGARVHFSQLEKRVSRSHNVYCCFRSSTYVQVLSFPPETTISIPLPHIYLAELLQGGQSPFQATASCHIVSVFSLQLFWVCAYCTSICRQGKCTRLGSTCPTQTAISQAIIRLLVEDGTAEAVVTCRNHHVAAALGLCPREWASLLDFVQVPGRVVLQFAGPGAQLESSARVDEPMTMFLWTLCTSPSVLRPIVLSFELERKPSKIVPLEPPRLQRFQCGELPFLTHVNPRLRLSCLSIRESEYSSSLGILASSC
Chain of CST (CTC1-STN1-TEN1) (Q9H668 whole entry, chain 2 of 3): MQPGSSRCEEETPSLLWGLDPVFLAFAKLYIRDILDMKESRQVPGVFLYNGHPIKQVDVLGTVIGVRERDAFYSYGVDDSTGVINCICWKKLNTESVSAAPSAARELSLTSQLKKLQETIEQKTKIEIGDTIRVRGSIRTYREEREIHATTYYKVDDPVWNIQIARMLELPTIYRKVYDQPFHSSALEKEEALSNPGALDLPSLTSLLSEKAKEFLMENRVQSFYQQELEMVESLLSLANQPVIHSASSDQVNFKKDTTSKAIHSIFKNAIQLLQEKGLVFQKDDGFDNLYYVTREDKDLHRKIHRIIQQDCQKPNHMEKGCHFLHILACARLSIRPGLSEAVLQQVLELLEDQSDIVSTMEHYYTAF
Chain of CST (CTC1-STN1-TEN1) (Q86WV5 whole entry, chain 3 of 3): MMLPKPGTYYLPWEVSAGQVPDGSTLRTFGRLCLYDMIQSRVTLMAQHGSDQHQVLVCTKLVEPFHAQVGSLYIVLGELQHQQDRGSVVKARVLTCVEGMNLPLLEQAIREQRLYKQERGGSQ

Binder | Kd (RPA [1]) | Kd (CST (CTC1-STN1-TEN1)) | Kd (RPA [2])
GGGTTAGGGTTAGGGTTAGGG (structured_DNA) [Tel21 G4] | 5.5 nM | – | –
GGGTTAGGGTTAGGGTTAGGG (ssDNA) [Tel21] | – | 1.3 nM | 1.9 nM
